T1: Human VSIG4-L-CHO (human VSIG4 long isoform on CHO-K1 cells) (human, UniProt Q9Y279 20-399)
T1 construct: also called hVSIG4-L (flow cytometry)
T1 sequence: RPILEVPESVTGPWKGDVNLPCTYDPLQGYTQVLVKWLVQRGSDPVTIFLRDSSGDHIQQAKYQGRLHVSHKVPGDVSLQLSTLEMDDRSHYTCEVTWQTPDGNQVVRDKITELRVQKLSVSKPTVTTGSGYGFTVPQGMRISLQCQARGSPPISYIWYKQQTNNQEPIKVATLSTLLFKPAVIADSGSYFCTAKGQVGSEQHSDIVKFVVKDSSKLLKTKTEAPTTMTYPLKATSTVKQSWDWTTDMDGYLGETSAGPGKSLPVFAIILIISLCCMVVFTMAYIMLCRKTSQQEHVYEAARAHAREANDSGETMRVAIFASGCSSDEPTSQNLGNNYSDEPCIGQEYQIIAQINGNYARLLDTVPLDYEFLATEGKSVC

T2: Mouse VSIG4-His (mouse)
T2 construct: ECD with His tag; also called mVSIG4
T2 chain: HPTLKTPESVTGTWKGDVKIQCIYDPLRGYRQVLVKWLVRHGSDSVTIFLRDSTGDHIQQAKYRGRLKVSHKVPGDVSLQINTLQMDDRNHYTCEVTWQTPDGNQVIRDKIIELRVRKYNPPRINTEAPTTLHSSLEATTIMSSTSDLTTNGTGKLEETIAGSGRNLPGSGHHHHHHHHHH

T3: Cynomolgus Monkey VSIG4-L-His (cynomolgus monkey)
T3 construct: ECD with His tag; also called cyVSIG4-L; cyno VSIG4-L-His
T3 chain: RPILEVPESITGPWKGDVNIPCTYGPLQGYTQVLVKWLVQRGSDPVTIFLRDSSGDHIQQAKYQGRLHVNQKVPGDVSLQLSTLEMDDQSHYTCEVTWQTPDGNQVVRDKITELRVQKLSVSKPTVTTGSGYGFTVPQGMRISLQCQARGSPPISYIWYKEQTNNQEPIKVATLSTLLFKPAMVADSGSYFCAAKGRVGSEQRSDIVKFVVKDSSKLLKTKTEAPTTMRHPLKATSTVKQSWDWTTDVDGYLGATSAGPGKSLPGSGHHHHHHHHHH

T4: Human VSIG4-L-His (human, UniProt Q9Y279 20-283)
T4 construct: long isoform ECD with His tag; also called hVSIG4-L
T4 sequence: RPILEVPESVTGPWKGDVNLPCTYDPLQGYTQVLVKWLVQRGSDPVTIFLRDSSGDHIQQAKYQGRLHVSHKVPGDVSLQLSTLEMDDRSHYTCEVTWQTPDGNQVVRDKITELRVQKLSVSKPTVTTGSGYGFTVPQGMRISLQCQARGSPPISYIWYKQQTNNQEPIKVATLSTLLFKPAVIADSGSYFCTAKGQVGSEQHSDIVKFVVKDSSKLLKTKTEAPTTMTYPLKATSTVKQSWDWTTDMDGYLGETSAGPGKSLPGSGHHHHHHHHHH

T5: Human VSIG4-S-His (human, UniProt Q9Y279 20-283)
T5 construct: short isoform ECD with His tag; also called hVSIG4-S; VISG4-S-His
T5 sequence: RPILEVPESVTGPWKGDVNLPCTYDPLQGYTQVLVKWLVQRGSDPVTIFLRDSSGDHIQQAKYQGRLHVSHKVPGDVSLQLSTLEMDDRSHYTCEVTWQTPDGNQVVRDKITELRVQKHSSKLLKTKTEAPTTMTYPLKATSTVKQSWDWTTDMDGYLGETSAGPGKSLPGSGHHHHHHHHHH


Tests used:
Human VSIG4-L-Fc [1] = target: T6, Human VSIG4-L-Fc (human); assay: BLI binning on hVSIG4-L-Fc, competitor 12A12 first;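 also: normalized to binding of second antibody without first competitor antibody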
T6 construct: also called hVSIG4-L-Fc; hVSIG4-L
Target sequence in this assay (chain, as listed by the source limits assumed): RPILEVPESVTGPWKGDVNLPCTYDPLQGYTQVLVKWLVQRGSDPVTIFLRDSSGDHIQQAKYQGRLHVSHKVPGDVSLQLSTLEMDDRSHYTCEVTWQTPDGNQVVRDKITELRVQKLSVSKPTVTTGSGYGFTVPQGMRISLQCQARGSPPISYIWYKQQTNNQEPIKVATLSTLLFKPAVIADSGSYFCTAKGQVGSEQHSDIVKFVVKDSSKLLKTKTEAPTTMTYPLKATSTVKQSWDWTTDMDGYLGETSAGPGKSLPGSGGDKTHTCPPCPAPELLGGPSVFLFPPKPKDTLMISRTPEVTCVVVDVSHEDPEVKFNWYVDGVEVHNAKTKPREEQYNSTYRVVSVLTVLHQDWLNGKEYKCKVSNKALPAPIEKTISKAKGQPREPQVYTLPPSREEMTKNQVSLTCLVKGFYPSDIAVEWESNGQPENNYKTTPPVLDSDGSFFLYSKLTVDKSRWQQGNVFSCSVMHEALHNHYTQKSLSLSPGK
Procedure: (§1) Epitopic diversity of functional antibodies was further assessed by antibody cross-blocking experiments, performed on a ForteBio Octet® Red384 system. […] All assay steps occurred at 30° C. with an acquisition rate of 5.0 Hz.
(§2) Binning results were calculated using ForteBio Data Analysis HT software. Antibody “a” and antibody “b” steps were defined, and the maximum binding calculation was averaged at the last 10% of the step duration. Once the matrix was generated, the antibody “b” binding signal in the absence of any antibody “a” was used to normalize the maximum binding of the competitor antibodies. Hierarchical clustering was set with a similarity metric of Pearson and Lingang Criteria by Mean, and the normalized maximum binding nm shift is reported in Table 9 below.

Human VSIG4-L-Fc [2] = target: T6, Human VSIG4-L-Fc; assay: BLI binning on hVSIG4-L-Fc, competitor 14C05 first;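 also: normalized to binding of second antibody without first competitor antibody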
Procedure: as §1, §2

Human VSIG4-L-Fc [3] = target: T6, Human VSIG4-L-Fc; assay: ligand blocking of C3b, IgG
Human VSIG4-L-Fc [4] = target: T6, Human VSIG4-L-Fc; assay: BLI binning on hVSIG4-L-Fc, competitor 16E10 first;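 also: normalized to binding of second antibody without first competitor antibody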
Procedure: as §1, §2

Human VSIG4-L-Fc [5] = target: T6, Human VSIG4-L-Fc; assay: ligand blocking of iC3b, IgG
[6] = target: T1, Human VSIG4-L-CHO (human VSIG4 long …); assay: flow cytometry (FJB), 200 nM mAb, huVSIG4-L CHO-K1 over parental CHO-K1
Human VSIG4-L-Fc [7] = target: T6, Human VSIG4-L-Fc; assay: BLI binning on hVSIG4-L-Fc, competitor 14D12 first;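 also: normalized to binding of second antibody without first competitor antibody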
Procedure: as §1, §2

[8] = target: T1, Human VSIG4-L-CHO (human VSIG4 long …); assay: flow cytometry (FJB), 200 nM mAb, huVSIG4-L CHO-K1 cells
Human VSIG4-L-Fc [9] = target: T6, Human VSIG4-L-Fc; assay: BLI binning on hVSIG4-L-Fc, competitor 12A08 first;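 also: normalized to binding of second antibody without first competitor antibody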
Human VSIG4-L-Fc [10] = target: T6, Human VSIG4-L-Fc; assay: BLI binning on hVSIG4-L-Fc, competitor 13H11 first;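 also: normalized to binding of second antibody without first competitor antibody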
Procedure: as §1, §2

[11] = target: T1, Human VSIG4-L-CHO (human VSIG4 long …); assay: flow cytometry, CHO-K1 cells expressing hVSIG4-L
Human VSIG4-L-Fc [12] = target: T6, Human VSIG4-L-Fc; assay: BLI binning on hVSIG4-L-Fc, competitor 16E03 first;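 also: normalized to binding of second antibody without first competitor antibody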
Procedure: as §1, §2

Human VSIG4-L-Fc [13] = target: T6, Human VSIG4-L-Fc; assay: ligand competition ELISA (FJB), blocked ligand iC3b
Human VSIG4-L-Fc [14] = target: T6, Human VSIG4-L-Fc; assay: ligand competition ELISA (FJB), blocked ligand C3b
Human VSIG4-L-Fc [15] = target: T6, Human VSIG4-L-Fc; assay: BLI binning on hVSIG4-L-Fc, competitor 15C04 first;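 also: normalized to binding of second antibody without first competitor antibody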
Mouse VSIG4-His = target: T2, Mouse VSIG4-His; assay: ELISA, IgG 50 nM on coated antigen;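 also: Mouse-human chimeric IgG4 antibodies incubated 1 h on plate-coated VSIG4 proteins, bound IgG detected with HRP-labelled anti-human IgG, irrelevant antibody and protein as specificity controls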
Procedure: (§3) The binding characteristics of selected antibodies identified in the phage display selections and reformatted as mouse-human chimeric IgG4 antibodies was assessed by ELISA for their ability to bind plate-bound human VSIG4-L, human VSIG4-S, cynomolgus monkey VSIG4, and mouse VSIG4 (Table 7). Antibodies were also assessed by ELISA for specificity to human VSIG4 compared to related VSIG4 B7 family members, including human B7-H1, B7-H2, B7-H3, B7-H4, B7-DC, B7-1, and B7-2 (Table 8).
(§4) Coated microplates were blocked with dried skimmed milk at 4% in PBS. Coated proteins were then incubated with each purified antibody at a concentration of 50 nM for 1 h to allow the binding to the proteins. Binding detection was measured using a goat anti-huIgG monoclonal detection antibody, HRP conjugated (Jackson Immune Research, West Gove, PA). As a control for specificity, an irrelevant antibody and protein were used. OD at 450 nm was determined using a standard absorbance microplate reader.

Human VSIG4-L-Fc [16] = target: T6, Human VSIG4-L-Fc; assay: ELISA, IgG 50 nM on coated antigen;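 also: Mouse-human chimeric IgG4 antibodies incubated 1 h on plate-coated VSIG4 proteins, bound IgG detected with HRP-labelled anti-human IgG, irrelevant antibody and protein as specificity controls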
Procedure: as §3, §4

[17] = target: T3, Cynomolgus Monkey VSIG4-L-His; assay: ELISA, IgG 50 nM on coated antigen;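 also: Mouse-human chimeric IgG4 antibodies incubated 1 h on plate-coated VSIG4 proteins, bound IgG detected with HRP-labelled anti-human IgG, irrelevant antibody and protein as specificity controls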
Procedure: as §3, §4

Human VSIG4-S-Fc = target: T7, Human VSIG4-S-Fc (human); assay: ELISA, IgG 50 nM on coated antigen;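 also: Mouse-human chimeric IgG4 antibodies incubated 1 h on plate-coated VSIG4 proteins, bound IgG detected with HRP-labelled anti-human IgG, irrelevant antibody and protein as specificity controls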
T7 construct: short isoform ECD fused to human Fc1; also called hVSIG4-S
Procedure: as §3, §4

Human VSIG4-L-His [18] = target: T4, Human VSIG4-L-His; assay: BLI (Octet), IgG on AHC sensor, antigen 100 nM
Procedure: (§5) The binding affinity of chimeric antibodies was determined by biolayer interferometry (BLI), using a ForteBio Octet® Red384 system. […] Biosensors were rehydrated prior to the assay in kinetics buffer for 10 minutes and then equilibrated in kinetics buffer for 60 seconds. Antibody was then immobilized for 300 seconds followed by a 120 second baseline wash in fresh kinetics buffer, 300 second analyte association, and 300 second dissociation in the same buffer wells as the baseline wash step. All assay steps occurred at 30° C. with an acquisition rate of 5.0 Hz
(§6) Processing parameters included double reference subtraction, with human IgG4 used as an isotype control for reference sensor subtraction and immobilized ligand in kinetics buffer with no analyte used for reference sample subtraction. Y-axis data was aligned to the average baseline step for the last 5 seconds and all steps were inter-step corrected to the start of the dissociation step. High frequency noise was removed using Savitzky-Golay filtering and final fitting was a 1:1 global binding model to both association and dissociation.

[19] = target: T3, Cynomolgus Monkey VSIG4-L-His; assay: BLI (Octet), IgG on AHC sensor, antigen 100 nM
Procedure: as §5, §6

Human VSIG4-L-His [20] = target: T4, Human VSIG4-L-His; assay: SPR (FJB)
[21] = target: T3, Cynomolgus Monkey VSIG4-L-His; assay: SPR (FJB)
Human VSIG4-L-Fc [22] = target: T6, Human VSIG4-L-Fc; assay: BLI binning on hVSIG4-L-Fc, competitor 15C03 first;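 also: normalized to binding of second antibody without first competitor antibody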
Procedure: as §1, §2

Human VSIG4-L-Fc [23] = target: T6, Human VSIG4-L-Fc; assay: BLI binning on hVSIG4-L-Fc, competitor 15A06 first;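 also: normalized to binding of second antibody without first competitor antibody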
Procedure: as §1, §2

Human VSIG4-L-His [24] = target: T4, Human VSIG4-L-His; assay: BLI, IgG on AHC sensor, antigen 100 nM
[25] = target: T3, Cynomolgus Monkey VSIG4-L-His; assay: BLI, IgG on AHC sensor, antigen 100 nM
Human VSIG4-S-His = target: T5, Human VSIG4-S-His; assay: BLI (Octet), IgG on AHC sensor, antigen 100 nM
Procedure: as §5, §6

T7 sequence (chain, as listed by the source limits assumed): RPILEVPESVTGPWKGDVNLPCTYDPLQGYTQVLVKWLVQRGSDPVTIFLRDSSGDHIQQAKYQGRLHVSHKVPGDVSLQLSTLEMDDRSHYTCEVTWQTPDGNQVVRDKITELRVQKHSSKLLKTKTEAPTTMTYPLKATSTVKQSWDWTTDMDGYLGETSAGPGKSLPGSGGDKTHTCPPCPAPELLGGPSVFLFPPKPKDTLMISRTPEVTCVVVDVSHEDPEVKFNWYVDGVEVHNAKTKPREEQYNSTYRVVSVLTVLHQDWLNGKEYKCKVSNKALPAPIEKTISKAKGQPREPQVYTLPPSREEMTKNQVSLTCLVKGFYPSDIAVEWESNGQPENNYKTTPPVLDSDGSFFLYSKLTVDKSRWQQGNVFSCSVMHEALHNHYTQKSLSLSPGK

Row | normalized maximum binding nm shift (Human VSIG4-L-Fc [1]) [normalized] | normalized maximum binding nm shift (Human VSIG4-L-Fc [2]) [normalized] | Percent Blocking C3b (Human VSIG4-L-Fc [3]) [%] | normalized maximum binding nm shift (Human VSIG4-L-Fc [4]) [normalized] | Percent Blocking iC3b (Human VSIG4-L-Fc [5]) [%] | Binding (200 nM) Fold-Over-Parental [6] [fold] | normalized maximum binding nm shift (Human VSIG4-L-Fc [7]) [normalized] | Binding (200 nM) MFI [8] [MFI] | normalized maximum binding nm shift (Human VSIG4-L-Fc [9]) [normalized] | normalized maximum binding nm shift (Human VSIG4-L-Fc [10]) [normalized] | EC50 [11] [nM] | normalized maximum binding nm shift (Human VSIG4-L-Fc [12]) [normalized] | IC50 (Human VSIG4-L-Fc [13]) [nM] | IC50 (Human VSIG4-L-Fc [14]) [nM] | normalized maximum binding nm shift (Human VSIG4-L-Fc [15]) [normalized] | ELISA OD450 (Mouse VSIG4-His) [OD450] | ELISA OD450 (Human VSIG4-L-Fc [16]) [OD450] | ELISA OD450 [17] [OD450] | ELISA OD450 (Human VSIG4-S-Fc) [OD450] | Kd (Human VSIG4-L-His [18]) [nM] | Binder | other results
1 | 0.82 | 0.72 | 93 | 0.92 | 94 | 73 | 0.72 | 53200 | 0.8 | 0.68 | 8.9 | 0.74 | 17 | 19.7 | 0.16 | 0.052 | 4.43 | 4.53 | 3.28 | 25.4 | 15C04 mouse/human chimeric IgG4 (S228P) kappa (antibody, V domains shown) VH: QIQLQESGPSLVRPSQTLSLTCSVTGDSITSGYWNWIRKFPGDKLEYLGYISYSGFTYYNPSLKSRISITRDTSKNQYYLQLNSVTTEDTATYYCASSYYGSSLGFPYWGQGTLVTVSA VL: DVVMTQTPLSLPVSLGDQASISCRSSQSLVHSNGNTYLHWYLQKPGQSPKLLIYKVSNRFSGVPDRFSGSGSGTDFTLKISRVEAEDLGVYFCSQSTHVPWTFGGGTKLEIKR | Kd [19]: 183 nM; Kd (Human VSIG4-L-His [20]): 5.4 nM; Kd [21]: 15.6 nM; normalized maximum binding nm shift (Human VSIG4-L-Fc [22]): 0.81 normalized; normalized maximum binding nm shift (Human VSIG4-L-Fc [23]): 0.08 normalized
2 | 0.25 | 0.74 | 33 | 0.15 | 72 | 50 | 0.69 | 14700 | 0 | 0.65 | 1 | 0.1 | 3.6 | 0.7 | 0.89 | 0.048 | 4.44 | 4.5 | 2.04 | 68.5 | 16E10 mouse/human chimeric IgG4 (S228P) kappa (antibody, V domains shown) VH: QVQLQQSGAELVRPGTSVKISCKASGYTFTNYWLGWVKQRPGHGLEWIGDIYPGGGYTNYNEKFKGKATLTADTSSSTAYMQLSSLTSEDSAVYFCAKFYYYGSSYYFDSWGQGTTLTVSS VL: DIVLTQSPSSLSVSAGEKVTLSCKSSQSLLNSGNQENYLAWYQQKPGQPPKLLIYGASTRESGVPDRFTGSGSGTDFTLTISSVQAEDLAVYYCQNDHSYPLTFGAGTKLELKR | KD relative to parental chimera (Human VSIG4-L-His [24]): 1 fold; KD relative to parental chimera [25]: 1 fold; Kd (Human VSIG4-S-His): 75.3 nM; Kd [19]: 37.6 nM; Kd (Human VSIG4-L-His [20]): 66.1 nM; Kd [21]: 1.3 nM; normalized maximum binding nm shift (Human VSIG4-L-Fc [22]): 0.88 normalized; normalized maximum binding nm shift (Human VSIG4-L-Fc [23]): 0.77 normalized
3 | 0.78 | 0.72 | 96 | 0.44 | 98 | 357 | 0.7 | 121000 | 0.1 | 0.69 | 6.8 | 0.1 | 0.4 | 1 | 0.94 | 0.056 | 4.44 | 4.43 | 3.37 | 20.6 | 12A08 mouse/human chimeric IgG4 (S228P) kappa (antibody, V domains shown) VH: EVMLVESGGGLVKPGGSLKLSCAASGFTFDDFYMYWVRQTPEKRLEWVASISDGGTYTYYPDSVKGRFTISRDNAKNTLYLQLSSLKSEDTAMYYCARGVDKYYYAMDYWGQGTSVTVSS VL: QILLTQSPAIMSASPGEKVTITCSASSSVSYMHWFQQKPGTSPKLWIYSTSNLASGVPARFSGSGSGTSYSLTISRMEAEDAATYYCQQRSSYPLTFGAGTKLELKR | Kd (Human VSIG4-S-His): 18.8 nM; Kd [19]: 15.7 nM; Kd (Human VSIG4-L-His [20]): 6.7 nM; Kd [21]: 3.9 nM; normalized maximum binding nm shift (Human VSIG4-L-Fc [22]): 0.89 normalized; normalized maximum binding nm shift (Human VSIG4-L-Fc [23]): 0.76 normalized
